# Measurements reported in publication PMC8761493, “New insights into the phosphorylation of the threonine motif of the β1 integrin cytoplasmic domain” (Life Science Alliance, 2022).
# Experiments:
# [1] = target: β1-pTpT peptide, N-terminally desthiobiotinylated; experiment: pull-down; desthiobiotinylated β1-tail peptides on Dynabeads MyOne Streptavidin C1; 0.5 mg whole cell lysate in MPER with protease and phosphatase inhibitors, 4°C; Western blot and densitometry
# recombinant kindlin-2 = experiment: Streptavidin-bead peptide pull-down with recombinant protein; format: binding; details: N-terminally desthio biotinylated peptide on streptavidin beads; kindlin-2 2.5 nM; THD absent or present; 2 h at 4°C; Western blot
# Description: (§1) Before use, peptides were immobilized on 25 μl Dynabeads MyOne Streptavidin C1 (10 mg/ml; Invitrogen) in Mammalian Protein Extraction Reagent (Thermo Fisher Scientific) containing protease inhibitors (cOmplete; Roche) and phosphatase inhibitors (Phosphatase Inhibitor Cocktail 2 and 3; Sigma-Aldrich) for 3 h at 4°C. Cell lysates were prepared with MPER containing protease and phosphatase inhibitors and 0.5 mg of supernatant was incubated with the peptide-coated beads at 4°C under constant rotation. For pull-downs with recombinant proteins, synthetic β1 integrin tail peptides were immobilized on 25 μl Dynabeads MyOne Streptavidin C1 (10 mg/ml; Invitrogen) for 3 h at 4°C, incubated with 2% BSA in Mammalian Protein Extraction Reagent (Thermo Scientific Scientific) for 30 min at 4°C to block unspecific binding before adding kindlin-2 or THD (conc 2.5 and 8.5 nM, respectively) and further incubation on a rotator for 2 h at 4°C. After washing the beads three times with lysis buffer, the proteins bound to the beads were eluted using Laemmli buffer, separated on a 10% SDS–PAGE, and analyzed by Western blotting.
# kindlin-2 [2] = target: T1, kindlin-2 (Homo sapiens, UniProt Q96AC1); experiment: Microscale thermophoresis (MST) affinity measurement; format: binding; details: compared with β1-WT tails
# T1 sequence (Q96AC1 1-680): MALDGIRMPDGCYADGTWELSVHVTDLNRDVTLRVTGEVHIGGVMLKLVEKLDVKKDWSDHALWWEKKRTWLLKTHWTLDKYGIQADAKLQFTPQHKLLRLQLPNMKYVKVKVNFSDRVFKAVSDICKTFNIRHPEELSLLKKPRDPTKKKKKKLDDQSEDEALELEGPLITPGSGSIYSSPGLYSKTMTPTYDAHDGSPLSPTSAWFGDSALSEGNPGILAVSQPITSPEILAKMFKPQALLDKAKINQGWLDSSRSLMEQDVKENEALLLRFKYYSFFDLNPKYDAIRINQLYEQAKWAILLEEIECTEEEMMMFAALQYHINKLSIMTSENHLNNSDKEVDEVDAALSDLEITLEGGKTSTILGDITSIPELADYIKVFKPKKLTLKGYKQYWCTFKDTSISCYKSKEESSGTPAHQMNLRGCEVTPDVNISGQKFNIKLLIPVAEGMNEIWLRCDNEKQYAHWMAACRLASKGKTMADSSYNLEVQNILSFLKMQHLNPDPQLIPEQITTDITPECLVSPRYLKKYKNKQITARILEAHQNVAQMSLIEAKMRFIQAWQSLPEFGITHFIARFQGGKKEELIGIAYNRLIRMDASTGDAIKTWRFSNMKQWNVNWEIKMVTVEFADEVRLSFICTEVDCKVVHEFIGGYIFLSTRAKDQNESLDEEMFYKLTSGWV
# Description: All MST measurements were performed on a Monolith NT.115 red-blue (Nanotemper) using premium-coated capillaries to reduce non-specific interaction of the proteins with the glass surface. Both interaction partners (ligand and receptor) were transferred into MST buffer (20 mM Tris, pH 7.5, 200 mM sodium chloride, 1 mM tris(2-carboxyethyl)phosphine [TCEP], 0.05% Tween-20) to avoid artifacts derived from buffer mismatches. […] The measurements were carried out at 20% light emitting diode power and 20% and 40% MST power. Data were analyzed using the MO Affinity Analysis Software (Nanotemper).
# [3] = Mass spectrometry-based measurement of the peptide's phosphorylation state after incubation in whole cell lysates; format: in vitro ADME; details: whole cell lysate in MPER with protease and phosphatase inhibitors, 4°C; read-out mass spectrometry
# endogenous SNX17 = experiment: Peptide pull-down from whole cell lysate, Western blot; format: binding; details: densitometry, compared with β1-WT, mean ± SD, n = 5, SD
# Description: as §1
# endogenous kindlin-2 = experiment: as above; format: binding; details: densitometry, compared with β1-WT, mean ± SD, n = 5, SD
# Description: as §1
# kindlin-2 [4] = target: kindlin-2 (UniProt Q8CIB5); experiment: biotinylated peptide pull-down from cell lysate; details: reference: β1-WT tail peptide; sites T788,T789
# SNX17 = SNX17 (UniProt Q8BVL3); experiment: biotinylated peptide pull-down from cell lysate; details: reference: β1-WT tail peptide; sites T788,T789
# kindlin-2 [5] = target: kindlin-2 (UniProt Q8CIB5); experiment: streptavidin-bead peptide pull-down, Western blot; details: reference: β1-WT tail peptide; sites T788,T789
# [6] = target: talin-1 head domain (THD) head domain (UniProt P26039); experiment: streptavidin-bead peptide pull-down, Western blot; details: reference: β1-WT tail peptide; sites T788,T789
# kindlin-2 [7] = target: kindlin-2 (UniProt Q8CIB5); experiment: microscale thermophoresis, Atto488-labeled peptides; details: reference: β1-WT tail peptide; sites T788,T789
# [8] = target: talin-1 head domain (THD) head domain (UniProt P26039); experiment: as above; details: reference: β1-WT tail peptide; sites T788,T789
molecule,measurement,setting,value
endogenous kindlin-2 (from UniProt Q8CIB5 1-680) (natural protein),binding in percent of that to β1-WT (densitometry),[1],27%
CC[C@H](C)[C@H](NC(=O)[C@@H]1CCCN1C(=O)[C@H](CC(N)=O)NC(=O)[C@H](CCC(=O)O)NC(=O)CNC(=O)[C@@H](NC(=O)[C@H](CC(=O)O)NC(=O)[C@H](Cc1c[nH]c2ccccc12)NC(=O)[C@H](CCCCN)NC(=O)[C@H](C)NC(=O)[C@H](CC(N)=O)NC(=O)[C@H](CCSC)NC(=O)[C@H](CCCCN)NC(=O)[C@H](CCC(=O)O)NC(=O)[C@H](CCCCN)NC(=O)[C@H](CCC(=O)O)NC(=O)[C@H](Cc1ccccc1)NC(=O)[C@H](CCCCN)NC(=O)[C@H](C)NC(=O)[C@H](Cc1ccccc1)NC(=O)[C@H](CCC(=O)O)NC(=O)[C@H](CCCNC(=N)N)NC(=O)[C@H](CCCNC(=N)N)NC(=O)[C@H](CC(=O)O)NC(=O)[C@@H](N)Cc1c[nH]cn1)[C@@H](C)O)C(=O)N[C@@H](Cc1ccc(O)cc1)C(=O)N[C@@H](CCCCN)C(=O)N[C@@H](CO)C(=O)N[C@@H](C)C(=O)N[C@H](C(=O)N[C@H](C(=O)N[C@H](C(=O)N[C@H](C(=O)N[C@H](C(=O)N[C@@H](CC(N)=O)C(=O)N1CCC[C@H]1C(=O)N[C@@H](CCCCN)C(=O)N[C@@H](Cc1ccc(O)cc1)C(=O)N[C@@H](CCC(=O)O)C(=O)NCC(=O)N[C@@H](CCCCN)C(=O)O)C(C)C)C(C)C)[C@@H](C)OP(=O)(O)O)[C@@H](C)OP(=O)(O)O)C(C)C [β1-pTpT],pull-down of recombinant kindlin-2 (in words),recombinant kindlin-2,not
same,affinity of kindlin-2 for the tail peptide (in words),kindlin-2 [2],not measurable anymore
same,reduction of the peptide's phosphorylation after incubation in whole cell lysates,[3],around 40%
same,"SNX17 binding to the peptide, reduced to",endogenous SNX17,60 ± 11%
same,"kindlin-2 binding to the peptide, reduced to",endogenous kindlin-2,27 ± 11%
"β1 integrin (cytoplasmic tail, β1-tail) cytoplasmic tail (from UniProt P09055) β1-pTpT tail peptide",percent of reference,kindlin-2 [4],27%
same,percent of reference,SNX17,60%
same,binding against the reference,kindlin-2 [5],lost
same,binding against the reference,[6],same
same,binding against the reference,kindlin-2 [7],lost
same,binding against the reference,[8],same
